Assay results as given in the supplement of paper PMC9170038.

Tested on: MS2 coat protein
Test: apparent KD of MS2 coat protein; designed switch direction (-1 OFF switch, 1 ON switch): -1; higher = weaker reporter binding
How it was run: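 RNA switches sharing common flanks were transcribed by stalled E. coli RNA polymerase on Illumina chips. A doubling series of SNAP-549-labelled MS2 coat protein, from 0.7 or 1.5 nM to 3 µM, was applied in Tris-HCl pH 7.5 buffer with KCl, MgCl2, BSA, DTT, tRNA and Tween-20. Each step lasted 0.8–1.5 h at the bottom of the series and 10–20 min at the top. Normalised cluster fluorescence was curve-fitted, giving apparent KD as the per-design median over clusters.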

[1] = Eterna round: R95, input ligand: FMN 200 uM
[2] = Eterna round: R95, input ligand: microRNA oligo, concentration not stated
[3] = Eterna round: R95, input ligand: none
[4] = input ligand: microRNA oligo, concentration not stated

| Sequence | apparent KD of MS2 coat protein [1] [µM] | apparent KD of MS2 coat protein [2] [µM] | apparent KD of MS2 coat protein [3] [µM] | apparent KD of MS2 coat protein (input ligand: FMN 200 uM) [µM] | apparent KD of MS2 coat protein (input ligand: none) [µM] | apparent KD of MS2 coat protein [4] [µM] |
| --- | --- | --- | --- | --- | --- | --- |
| AAGAAACAUGAGGAUCACCCAUGUGAGGAUAUGAAAAAGAAAAGAAAAGAAAGAAGAAUCAGAAGGCACAAAGU [salish99-ex1_r3_089] (puzzle: Exclusion 1) | 0.0265 | 0.0259 | 0.0326 | – | – | – |
| AAGAAACAUGAGGAUCACCCAUGUGAGGAUAUGAAAAAGAAAAGAAAAGAAAGAAGGGUCAGAAGGCACAAAGG [salish99-ex1_r3_028] (puzzle: Exclusion 1) | 0.024 | 0.0253 | 0.0355 | – | – | – |
| AAGAAACAUGAGGAUCACCCAUGUGAGGAUAUGAGCAAGAAAAGAAAAGAAAGAAGACUCAGAAGGCACAAAGG [salish99-ex1_r3_072] (puzzle: Exclusion 1) | 0.0902 | 0.11 | 0.106 | – | – | – |
| AAGAAACAUGAGGAUCACCCAUGUGAGGAUAUGAGCACGACCGUGAGGUCGAUAAGAAUCAGAAGGCACAUUAA [JL-ex1-4.55] (Eterna round: R97, puzzle: Exclusion 1) | – | – | – | 0.137 | 0.0418 | – |
| AAGAAACAUGAGGAUCACCCAUGUGAGGAUAUGAUUAAGAAAAGAAAAGAAAGAAGAAUCAGAAGGCACAAAGG [salish99-ex1_r3_042] (puzzle: Exclusion 1) | 0.258 | 0.0987 | 0.108 | – | – | – |
| AAGAAACGAGGAUAUACAAUUAAGAGAGAGAAGGAAAUGAGACAUGAGGAUCACCCAUGUAGAAGGCGUAAGAG [JR_Exclu2_Sub083] (puzzle: Exclusion 2) | 0.028 | 0.0315 | 0.0282 | – | – | – |
| AAGAAACGAGGAUAUACAGUUGAGUGAGAGAGGGUAGUGUUACAUGAGGAUCACCCAUGUAGAAGGCGUGAGAG [JR_Exclu2_Sub089] (puzzle: Exclusion 2) | 0.0527 | 0.0315 | 0.0327 | – | – | – |
| AAGAAACGAGGAUAUACAGUUGAGUGAGGGAGGGUAGUGUUACAUGAGGAUCACCCAUGUAGAAGGCGUGAGAG [JR_Exclu2_Sub090] (puzzle: Exclusion 2) | 0.0248 | 0.0193 | 0.025 | – | – | – |
| AAGAACCCGGUAGGAUAUAUUGUGGGCAAACAUGGAACAACAUGAGGAUCACCCAUGUAAUUUAGGUAGAAGGGCCAAAAGAGA [Default title] (Eterna round: R96, puzzle: Exclusion NG 2) | – | – | – | 0.0801 | 0.0714 | 0.0516 |
| AAGAACGUCGGAGGAUAUCCAGCCAAGCCCGCAGGAGAAGGCCGGCGGUGGGAUGUGCUUCACAUGAGGAUCACCCAUGUUAAU [Onriti] (Eterna round: R96, puzzle: Exclusion NG 1) | – | – | – | 0.361 | 0.0962 | 0.0646 |
| AAGAAGAAGUAAGGAUAUGAAGAUCUGGUGGUGACAUGAGGAUCACCCAUGUGAAAACGAUGAGAUCAGAAGGUAUAAGAAGAA [AK ExNG2-3.3] (Eterna round: R96, puzzle: Exclusion NG 2) | – | – | – | 0.116 | 0.0894 | 0.0599 |
| AAGAAGAUCAAAGGAUAUGGAGCUGAAACGGAGCUAGAAGGUUGUCUAGUUUAACAUGAGGAUCACCCAUGUAGGUACCUCUAA [AK ExNG1-V2-1] (Eterna round: R96, puzzle: Exclusion NG 1) | – | – | – | 0.85 | 0.713 | 0.719 |
| AAGAGGUCAGGAUAUUGGGCGGAAAGGGAAAGGAAAGGGCCCAAGAAGGGACAUGAGGAUCACCCAUGUAAGAA [Excls4-I] (puzzle: Exclusion 4) | 0.0385 | 0.033 | 0.0354 | – | – | – |
| AAGAUGCGCGCAGGAUAUGGAGAGAAAGAAAGACCAGAAGGGCGGGUCACACAACAUGAGGAUCACCCAUGUGUGUGUUGCGAA [snuffleupagus] (Eterna round: R96, puzzle: Exclusion NG 1) | – | – | – | 0.00929 | 0.0122 | 0.00954 |
| AAGGGUGCUUUCAGAACGACAUGAGGAUCACCCAUGUAGACUGAGGAUAUCUACUUCUAAGGACGGGAGAAGGCAGUGUAAUGC [Ex NG3 #68] (Eterna round: R96, puzzle: Exclusion NG 3) | – | – | – | 0.0231 | 0.0216 | 0.0195 |
| AAGGGUGCUUUUAGAACGACAUGAGGAUCACCCAUGUAGACUGAGGAUAUCUACUCCUAAGGACCGGAGAAGGCAGUGUAAUGC [Ex NG3 #64] (Eterna round: R96, puzzle: Exclusion NG 3) | – | – | – | 0.0578 | 0.0559 | 0.075 |
| AAGGUGUUAGGAUAUCGUAGUUUGAGGCAGACGGGAUUUUGCGAGAAGGAACAUGAGGAUCACCCAUGUAGGAU [JR_Exclu4_Sub040] (puzzle: Exclusion 4) | – | 0.0259 | – | – | – | – |
| AAGUACCGUCACGAUAGUGAUGGUACAACAAGCAAAUGUACAUGAGGAUCACCCAUGUCCUCUUUUGCUCGUCUUAU [Sensor 3 - 94] (puzzle: Sensor v3, turn-off variant 2) | 0.0533 | 0.0289 | 0.0538 | – | – | – |
| AAGUAUAGAGGAUAUAGUGAGUACUACAUGAGGAUCACCCAUGUUCUUCAAAACGUAUUUCUAGAAGGCUGUUAAA [EX-5 Malc#20] (puzzle: Exclusion 5) | – | 0.0435 | – | – | – | – |
| AAGUCGACGGUGAGGAUAUUAGUUGAACGACAGAUUAAGAAGGUACAUGAGGAUCACCCAUGUGGGUAACGUUG [Brourd's EX4 #77] (Eterna round: R97, puzzle: Brourd's mod of Exclusion 4) | – | – | – | 0.0763 | 0.107 | – |
| AAGUCGACGGUGAGGAUAUUGGUUGAACGACAGAUCAAGAAGGCACAUGAGGAUCACCCAUGUGGGUAACGUCG [Brourd's EX4 #38] (Eterna round: R97, puzzle: Brourd's mod of Exclusion 4) | – | – | – | 0.0345 | 0.0191 | – |
| AAGUUGUGAGGAUAUACACAUCGUGCGGAAAGAUCCUUGUCACAUGAGGAUCACCCAUGUAGAAGGCGCGGUAU [Eternabot (L1) Solution 94] (Eterna round: R97, puzzle: Exclusion 2) | – | – | – | 0.529 | 0.74 | – |
| AAUAACAAGCAGAUCCUCCACAUGAGGAUCACCCAUGUGCUCGUCUUGUAAAGUACUAUCACGAAAGUGAUAGUACA (Eterna round: R97, puzzle: Sensor, turn-off variant 1) | – | – | – | 0.724 | 0.718 | – |
